Test results from article PMC3402474 (PLoS ONE, 2012).

B3: Bmh1 (natural protein, S. cerevisiae, UniProt P29311 1-267, looked up)
chain: MSTSREDSVYLAKLAEQAERYEEMVENMKTVASSGQELSVEERNLLSVAYKNVIGARRASWRIVSSIEQKEESKEKSEHQVELICSYRSKIETELTKISDDILSVLDSHLIPSATTGESKVFYYKMKGDYHRYLAEFSSGDAREKATNASLEAYKTASEIATTELPPTHPIRLGLALNFSVFYYEIQNSPDKACHLAKQAFDDAIAELDTLSEESYKDSTLIMQLLRDNLTLWTSDMSESGQAEDQQQQQQHQQQQPPAAAEGEAPK
notes: also called yeast 14-3-3 protein Bmh1; recombinant Bmh1
B4: Bmh2 (natural protein, S. cerevisiae, UniProt P34730 1-273, looked up)
chain: MSQTREDSVYLAKLAEQAERYEEMVENMKAVASSGQELSVEERNLLSVAYKNVIGARRASWRIVSSIEQKEESKEKSEHQVELIRSYRSKIETELTKISDDILSVLDSHLIPSATTGESKVFYYKMKGDYHRYLAEFSSGDAREKATNSSLEAYKTASEIATTELPPTHPIRLGLALNFSVFYYEIQNSPDKACHLAKQAFDDAIAELDTLSEESYKDSTLIMQLLRDNLTLWTSDISESGQEDQQQQQQQQQQQQQQQQQAPAEQTQGEPTK
notes: also called yeast 14-3-3 protein Bmh2; recombinant Bmh2

Columns and labels:
[1] = molecular target: B4; experiment: SPR; settings: both partners purified
[2] = molecular target: B3; experiment: SPR; settings: both partners purified
[3] = molecular target: the molecule itself; experiment: dynamic light scattering
[4] = molecular target: B4; experiment: SPR; BiacoreX, 25°C; recombinant Bmh1 or Bmh2 in 50 mM Tris (pH 7.5), 150 mM NaCl, 0.1 mM CaCl2 immobilized to CM5 chips; 2 µM sPLA2 injected; dissociation monitored 180 s; responses corrected for surface density and molecular weights; settings: both partners purified
[5] = molecular target: B3; experiment: as above; settings: both partners purified

B1: ammodytin L (natural protein)
chain: SVIEFGKMIQEETDKNPLTSYSFYGCHCGLGNKGKPKDATDRCCFVHSCCYAKLPDCSPKTNRYEYHRENGAIVCGSSTPCKKQICECDRAAAICFRENLKTYNKKYKVYLRFKCKGVSEKC
B1: binds [1]; binds [2].

B2: ammodytoxin A (enzyme)
chain: SLLEFGMMILGETGKNPLTSYSFYGCYCGVGGKGTPKDATDRCCFVHDCCYGNLPDCSPKTDRYKYHRENGAIVCGKGTSCENRICECDRAAAICFRKNLKTYNYIYRNYPDFLCKKESEKC
B2: binds [1]; binds [2].

For B3, the “stoichiometry N” value [3] was 2.

In the case of B4, the “stoichiometry N” value [3] is reported as 2.

B5: ammodytoxin B (enzyme)
chain: SLLEFGMMILGETGKNPLTSYSFYGCYCGVGGKGTPKDATDRCCFVHDCCYGNLPDCSPKTDRYKYHRENGAIVCGKGTSCENRICECDRAAAICFRKNLKTYNHIYMYYPDFLCKKESEKC
notes: also called AtxB
B5: binds [4]; binds [5].

B6: ammodytoxin C (enzyme)
chain: SLLEFGMMILGETGKNPLTSYSFYGCYCGVGGKGTPKDATDRCCFVHDCCYGNLPDCSPKTDRYKYHRENGAIVCGKGTSCENRICECDRAAAICFRKNLKTYNYIYRNYPDILCKEESEKC
notes: also called AtxC
B6: binds [4]; binds [5].
